{"source": "paper PMC7845591", "molecular_target": "endothelial protein C receptor (EPCR), residues 16 to 210, biotinylated on the BAP tag (human) (UniProt Q9UNN8)", "sequence (Q9UNN8 16-210)": "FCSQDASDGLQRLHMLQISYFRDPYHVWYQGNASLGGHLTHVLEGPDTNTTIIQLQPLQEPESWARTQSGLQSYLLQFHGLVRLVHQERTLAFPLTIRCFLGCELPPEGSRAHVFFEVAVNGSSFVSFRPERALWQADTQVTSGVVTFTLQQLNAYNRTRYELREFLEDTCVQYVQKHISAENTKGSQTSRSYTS", "assay": "SPR; Biacore T200; biotinylated EPCR captured on a CAP chip (150 RU); twofold dilution series of CIDRα domain or synthetic binder injected 240 s, dissociation 300 s; 20 mM HEPES pH 7.5, 150 mM NaCl, 0.005% Tween 20, 25°C; global fit to a 1:1 model"}
{"substance": "HB3var03 CIDRα1.4 domain D576A K642A double mutant (domain or fragment)", "values": [{"measurement": "Kd", "value": 220, "unit": "nM"}]}
